In paper PMC5941273, “DNA-binding miniproteins based on zinc fingers. Assessment of the interaction using nanopores† †Electronic supplementary information (ESI) available. See DOI: 10.1039/c7sc05441f”:

T1: gaga (GAGA Cys2-His2 zinc finger peptide) (UniProt Q08605 337-367)
T1 chain: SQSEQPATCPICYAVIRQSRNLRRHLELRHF

B1: AT·GAG (= cat·AT·GAG) (dsDNA)
DNA 1: CGCGTCATAATTGAGAGCGC
DNA 2: GCGCTCTCAATTATGACGCG
B2: cg·GAG (dsDNA)
DNA 1: CGCGTCATCAGCGAGAGCGC
DNA 2: GCGCTCTCGCTGATGACGCG

Assays:
Hk-gaga = Hk-gaga (UniProt Q08605); experiment: fluorescence anisotropy; conditions: Zn2+, EMSA: 18 mM Tris-HCl pH 7.5, 90 mM KCl, 1.8 mM MgCl2, 0.2 mM TCEP, 9% glycerol, 0.11 mg/mL BSA, 2.2% NP-40, 0.02 mM ZnCl2, 20 C, 75 nM DNA, FA: 20 mM Tris-HCl …
gaga-Hk = gaga-Hk (UniProt Q08605); experiment: fluorescence anisotropy; conditions: Zn2+, EMSA: 18 mM Tris-HCl pH 7.5, 90 mM KCl, 1.8 mM MgCl2, 0.2 mM TCEP, 9% glycerol, 0.11 mg/mL BSA, 2.2% NP-40, 0.02 mM ZnCl2, 20 C, 75 nM DNA, FA: 20 mM Tris-HCl …
gaga-Hk-gaga = gaga-Hk-gaga (UniProt Q08605); experiment: fluorescence anisotropy; conditions: no calf thymus DNA; Zn2+; EMSA: 18 mM Tris-HCl pH 7.5, 90 mM KCl, 1.8 mM MgCl2, 0.2 mM TCEP, 9% glycerol, 0.11 mg/mL BSA, 2.2% NP-40, 0.02 mM ZnCl2, 20 C, 75 nM DNA; FA: 20 mM Tris-HCl …
[1] = biological target: T1, gaga (GAGA Cys2-His2 zinc finger …); experiment: EMSA; Zn2+; 1000 nM; EMSA: 18 mM Tris-HCl pH 7.5, 90 mM KCl, 1.8 mM MgCl2, 0.2 mM TCEP, 9% glycerol, 0.11 mg/mL BSA, 2.2% NP-40, 0.02 mM ZnCl2, 20 C, 75 nM DNA; FA: 20 mM Tris-HCl pH 7.5, 100 mM NaCl, 0.02 mM ZnCl2, 20 C, 25 nM DNA; nanopore: 100 mM NaCl, 0.02 mM ZnCl2, 20 mM Tris-HCl pH 7.5, 22 C

Chain of gaga-Hk (Q08605 other isoform, or with tags, fused parts or gaps): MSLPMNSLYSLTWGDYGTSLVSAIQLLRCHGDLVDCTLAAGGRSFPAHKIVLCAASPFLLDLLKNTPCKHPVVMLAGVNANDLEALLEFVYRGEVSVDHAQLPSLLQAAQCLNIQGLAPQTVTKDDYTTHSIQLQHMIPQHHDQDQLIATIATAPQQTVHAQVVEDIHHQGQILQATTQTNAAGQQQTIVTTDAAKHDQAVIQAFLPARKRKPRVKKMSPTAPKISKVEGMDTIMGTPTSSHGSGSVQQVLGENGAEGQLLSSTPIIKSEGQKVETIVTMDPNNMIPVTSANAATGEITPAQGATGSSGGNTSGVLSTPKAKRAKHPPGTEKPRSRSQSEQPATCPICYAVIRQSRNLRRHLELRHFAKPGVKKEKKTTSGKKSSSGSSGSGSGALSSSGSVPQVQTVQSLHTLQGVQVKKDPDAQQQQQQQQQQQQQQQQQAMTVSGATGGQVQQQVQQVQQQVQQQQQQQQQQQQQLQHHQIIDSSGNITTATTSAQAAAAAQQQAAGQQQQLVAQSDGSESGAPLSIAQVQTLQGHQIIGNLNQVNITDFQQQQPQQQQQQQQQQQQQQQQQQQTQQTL
Chain of Hk-gaga (Q08605 other isoform, or with tags, fused parts or gaps): as above
Chain of gaga-Hk-gaga (Q08605 other isoform, or with tags, fused parts or gaps): as above

Row | Molecule | Kd (gaga-Hk; no calf thymus DNA) [nM] | binding result [1] | also measured
1 | CGCGTCATAATTGAGAGCGC (double strand) [TMR-AT·GAG] | 41 |  | Kd (Hk-gaga; 50 uM bp calf thymus DNA): 92 nM; Kd (Hk-gaga; no calf thymus DNA): 44 nM; Kd (gaga-Hk; 50 uM bp calf thymus DNA): 58 nM
2 | CGCGTCATCAGCGAGAGCGC (double strand) [TMR-cg·GAG] | 100 |  | 
3 | GAGCTCTCAATTGAGAGCGCG (double strand) [TMR-CTC·AT·GAG] |  |  | Kd (gaga-Hk-gaga): 35 nM
4 | B1 |  | no binding | 
5 | B2 |  | no binding | 
